How the values were obtained:
[1] = target: BOS 3 fusion (NLS-ZFP-KRAB-FLAG) (synthetic construct); assay: ChIP anti-FLAG, MCF-7 cells, amplicon 230 bp upstream of site; conditions: tags: NLS, KRAB repression domain
Description: The sonicated lysate was centrifuged at 13,000 rpm for 10 min at 4° C., and the supernatant was recovered. 1.8 ml of ChIP buffer (16.7 mM Tris-Cl, pH 8.1, 1.2 mM EDTA, 167 mM NaCl, 1.1% Triton X-100, 0.01% SDS, 0.5 mM PMSF, 20 ug/ml aprotinin, 20 ug/ml pepstatin, 20 ug/ml leupeptin) was added to the cleared supernatant and 0.2 ml was removed as a pre-immunoprecipitation (pre-IP) input control. The input control sample was analyzed by agarose gel electrophoresis to verify that DNA fragments of 200-500 nucleotide pairs had been obtained.
The remainder of the sonicated lysate was pre-cleared by adding 0.1 ml of a 50% slurry of Protein A agarose beads (also containing salmon sperm DNA at 200 ug/ml), followed by gentle agitation for 90 min. The lysate was separated from the beads by centrifugation at 1,000 xg for 5 min at 4° C. The cleared lysate was divided into two equal portions. […]
Immune complexes were eluted from the beads by washing them twice with 0.25 ml of 1% SDS, 0.1 M NaHCO₃. […] The purified DNA was analyzed by real-time quantitative PCR, an assay known colloquially as “Taqman®.” The DNA was analyzed for the relative proportion of two sequences: (1) a region located 230 nucleotide pairs upstream of the BOS 3 binding site, and (2) a control sequence from the 18S rRNA gene.

[2] = target: T1, VEGF 1 ZFP (NLS-ZFP-VP16-FLAG) (synthetic construct (SP1 backbone)); assay: ChIP anti-FLAG, 293 cells, GAPDH-normalized
T1 chain: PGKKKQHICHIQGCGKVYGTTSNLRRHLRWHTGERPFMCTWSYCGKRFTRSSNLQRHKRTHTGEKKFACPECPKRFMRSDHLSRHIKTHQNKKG
Description: (§1) Immunoprecipitated DNA, obtained as described in Example 11, was used as template in a real-time amplification assay. Three DNA targets were assayed: the integrated reporter gene containing four tandem VEGF 3a/1 binding sites (pGL-VFR), the endogenous VEGF gene, and the endogenous glyceraldehyde phosphate dehydrogenase (GAPDH) gene (which was used as a control for nonspecific precipitation).
(§2) The values obtained for the endogenous VEGF gene (VEGF) and for the integrated reporter containing VEGF target sites (pGL-VFR), normalized to the values obtained for GAPDH, were then normalized to the values obtained for cells transfected with NVF, a construct that lacks a zinc finger DNA-binding domain, to obtain a value for the degree to which VEGF sequences were enriched in immunoprecipitates from cells transfected with a construct encoding a ZFP. […] Furthermore, sequences from an integrated reporter gene containing VEGF target sequences were enriched 170-fold by the VEGF 3a/1 protein and approximately 8-fold by the three-finger VEGF 1 protein.

[3] = target: T1, VEGF 1 ZFP (NLS-ZFP-VP16-FLAG); assay: cell_activity; 293 cells; VEGF protein 1.5; mRNA 2.7 and protein 3.1 in Table 9
Excerpt: Activation of the integrated luciferase reporter gene containing VEGF target sites and immunoprecipitation of reporter sequences by the VEGF 1 and VEGF 3a/1 proteins, as shown in examples 10 and 11, provided evidence that these exogenous ZFPs are binding to their target sites in cellular chromatin. To investigate this question further, the expression of the endogenous VEGF gene was examined in cells containing exogenous VEGF 1 and VEGF 3a/1 proteins. Accordingly, the same samples that were analyzed in Examples 10 and 11 were assayed for endogenous VEGF MRNA (by real-time PCR analysis using reverse transcriptase-mediated PCR) and for VEGF protein (by ELISA). […] The apparent activation of the endogenous VEGF gene by the GATA 15.5 ZFP is explained by the data obtained in Example 14, infra.
The production of mRNA and protein from the endogenous VEGF gene was assayed as described in Example 13, and the results are shown in Table 9. […] The activation of the endogenous VEGF gene by GATA 15.5 is consistent with the ability of this protein to immunoprecipitate endogenous VEGF sequences (Table 7).

[4] = target: T1, VEGF 1 ZFP (NLS-ZFP-VP16-FLAG); assay: ChIP anti-FLAG, 293 cells, GAPDH-normalized; 8.3 in Table 7
Description: as §1, §2

[5] = target: T1, VEGF 1 ZFP (NLS-ZFP-VP16-FLAG); assay: cell_activity; 293 cells, integrated reporter; 6 in Table 8

BOS 3 fusion (NLS-ZFP-KRAB-FLAG) (synthetic construct), sequence (chain, as listed by the source): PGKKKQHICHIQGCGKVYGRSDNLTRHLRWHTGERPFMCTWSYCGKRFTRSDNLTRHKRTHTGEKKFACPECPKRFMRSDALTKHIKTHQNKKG

B1: endogenous ER-alpha gene BOS 3 site, -2 kb hypersensitive region (dsDNA)
DNA 1: GGGGAGGAG
DNA 2: CTCCTCCCC
- binding signal [1]: ~20 fold enrichment vs cells without BOS3

B2: endogenous VEGF-A gene target at +1 accessible region (dsDNA)
DNA 1: GGGGAGGATCGCGGAGGCTT
DNA 2: AAGCCTCCGCGATCCTCCCC
- binding signal [2]: 4.1 fold enrichment vs NVF
- activity [3]: 3.2 fold VEGF mRNA vs NVF

B3: pGL-VFR integrated reporter, VEGF 3a/1 target (four tandem copies) (dsDNA)
DNA 1: GGGGAGGATCGCGGAGGCTT
DNA 2: AAGCCTCCGCGATCCTCCCC
- binding signal [4]: 10.7 fold enrichment vs NVF
- activity [5]: 2.7 fold luciferase vs NVF

Source: patent US20020064802, “Methods for binding an exogenous molecule to cellular chromatin” (published 2002)
